According to publication PMC7616783, “A combined structural and biochemical approach reveals translocation and stalling of UvrB on the DNA lesion as a mechanism of damage verification in bacterial nucleotide excision repair” (DNA repair, 2019):

B1: Thermotoga maritima UvrA (natural protein)
chain: MNEIVVKGARVHNLKNITVRIPKNRLVVITGVSGSGKSSLAMDTIYAEGQRRYLESLSTYARQFLGNLKKPDVDEIEGLSPAIAIDQKTVSHNPRSTVGTVTEIYDYLRVLYARIGKAHCPECGRPLEKKSIDEILQDLFNSFKEGSRIYILAPVATEKKGTFKKEIEEFISKGFARIEIDGEIYRLEEVPELDKNKRHTVKLVVDRLILETRNEHRILDSLELAMREGKGFVEIRNVDTGESKIFSENLMCPVCGIGFPEITPKLFSFNSPYGACPNCHGLGFTFEVDPSLVIDEEKSVLEGAIIPYRWDRRLSRWVAREIEKRGVSPHLPFKDLPEDVKEFILYGDDRFEGVVPKVQRWHRETESPEMKEWLEKNFIVQRTCSVCGGRRLNREALSVKINGLNIHEFTELSISEELEFLKNLNLTEREREIVGELLKEIEKRLEFLVDVGLEYLTLSRSATTLSGGESQRIRLATQIGSGLTGVIYVLDEPTIGLHPRDTERLIKTLKKLRDLGNTVIVVEHDEEVIRNADHIIDIGPGGGTNGGRVVFQGTVDELLKNPDSSLTGEYLSGKRKITVNKTRRLPYASLKIKGVRHNNLKNIDVEIPLGVFVCVTGVSGSGKSSLVMETLYPALMNLLHKTKLPAGEFDSIEGHENIDKMIAIDQSPIGRTPRSNPATYTKVFDEIRSLFAMTPAAKARGYNKSRFSFNLKGGRCEACQGQGYVKIEMLFLPDVYVECDVCKGKRYNRETLEITYKGKNISDILDMTVDEALEFFKNIPSIKRTLQVLHDVGLGYVKLGQPATTLSGGEAQRIKLASELRKRDTGRTLYILDEPTVGLHFEDVRKLVEVLHRLVDRGNTVIVIEHNLDVIKNADHIIDLGPEGGKEGGYIVATGTPEEIAKNPHSYTGRFLKNVL
notes: UvrA, Thermotoga maritima; theoretical MW of the dimer printed as 205.8 kDa; the modelling section counts residues 1-916; In the assays it stood with fluorescein-modified DNA, ADP and Mg2+; also called Tm-UvrA; T. maritima (Tm) UvrA; source: BL21 STAR (DE3), pET28-SUMO based plasmid, purified (nickel resin, Ulp1 digestion, nickel resin, gel filtration)

Assays:
[1] = target: the molecule itself; assay: SEC-MALS; UvrA dimer (2.5 mg/ml) mixed 1:1 with self-annealed DNA (32 bp ds region, two fluorescein-modified thymines, 10 nt 5' overhangs), UvrB at two-fold molar excess over the UvrA dimer; dialysed at 4 °C against 20 mM HEPES pH 7.0, 150 mM NaCl, 5% glycerol, 1 mM DTT, 10 mM MgCl2; 1 mM ADP added; BioSuite High Resolution SEC column with MALS detector
Thermotoga maritima UvrA = target: B1; assay: as above; details: both partners purified

Binder: B1
- stoichiometry N [1]: 2

B2: Thermus thermophilus UvrB (natural protein, UniProt Q56243 1-665, looked up)
chain: MTFRYRGPSPKGDQPKAIAGLVEALRDGERFVTLLGATGTGKTVTMAKVIEALGRPALVLAPNKILAAQLAAEFRELFPENAVEYFISYYDYYQPEAYVPGKDLYIEKDASINPEIERLRHSTTRSLLTRRDVIVVASVSAIYGLGDPREYRARNLVVERGKPYPREVLLERLLELGYQRNDIDLSPGRFRAKGEVLEIFPAYETEPIRVELFGDEVERISQVHPVTGERLRELPGFVLFPATHYLSPEGLEEILKEIEKELWERVRYFEERGEVLYAQRLKERTLYDLEMLRVMGTCPGVENYARYFTGKAPGEPPYTLLDYFPEDFLVFLDESHVTVPQLQGMYRGDYARKKTLVDYGFRLPSALDNRPLRFEEFLERVSQVVFVSATPGPFELAHSGRVVEQIIRPTGLLDPLVRVKPTENQILDLMEGIRERAARGERTLVTVLTVRMAEELTSFLVEHGIRARYLHHELDAFERQALIRDLRLGHYDCLVGINLLREGLDIPEVSLVAILDADKEGFLRSERSLIQTIGRAARNARGEVWLYADRVSEAMQRAIEETNRRRALQEAYNLEHGITPETVRKEVRAVIRPEGYEEAPLEADLSGEDLRERIAELELAMWQAAEALDFERAARLRDEIRALEARLQGVRAPEPVPGGRKRKRR
notes: theoretical MW printed as 76.2 kDa; Two UvrB monomers stand in the complex, one on each side of the UvrA dimer; The complex is heterologous (T. maritima UvrA with T. thermophilus UvrB); also called Tt-UvrB; Thermus thermophilus (Tt) UvrB; source: BL21-CodonPlus(DE3)-RIL, pET28 based plasmid, purified (nickel resin, HRV 3C digestion, nickel resin, gel filtration)
- stoichiometry N (Thermotoga maritima UvrA): 2 UvrB per UvrA dimer
